Data reported in publication PMC9637814, “Aurora A–mediated pyruvate kinase M2 phosphorylation promotes biosynthesis with glycolytic metabolites and tumor cell cycle progression” (The Journal of Biological Chemistry, 2022).

Key:
[1] = molecular target: the molecule itself; assay: SEC-MALS; 1 mg/ml protein in 150 mM NaCl, 20 mM Tris pH 7.5; Superdex 200 Increase, 0.3 ml/min; tetramer and monomer
[2] = molecular target: T1, His-PKM2 (human, UniProt P14618 1-531); assay: pull-down; GST-tagged protein on resin incubated with purified His-PKM2 for 2 h at 4 °C, eluted with 10 mM GSH in 50 mM Tris pH 8.0, immunoblot; settings: both partners purified
T1 construct: full-length PKM2 cloned into the EcoRI/BamHI sites of pET-22b; also called His-tagged PKM2; His-PKM2 WT; source: E. coli, purified (nickel column)

[3] = molecular target: the molecule itself; assay: cross-linking; Flag-PKM2 purified on Flag beads from H1299 extracts, DSS crosslinking (1.5 mM, room temperature, 30 min), immunoblot

T1 sequence (P14618 whole entry): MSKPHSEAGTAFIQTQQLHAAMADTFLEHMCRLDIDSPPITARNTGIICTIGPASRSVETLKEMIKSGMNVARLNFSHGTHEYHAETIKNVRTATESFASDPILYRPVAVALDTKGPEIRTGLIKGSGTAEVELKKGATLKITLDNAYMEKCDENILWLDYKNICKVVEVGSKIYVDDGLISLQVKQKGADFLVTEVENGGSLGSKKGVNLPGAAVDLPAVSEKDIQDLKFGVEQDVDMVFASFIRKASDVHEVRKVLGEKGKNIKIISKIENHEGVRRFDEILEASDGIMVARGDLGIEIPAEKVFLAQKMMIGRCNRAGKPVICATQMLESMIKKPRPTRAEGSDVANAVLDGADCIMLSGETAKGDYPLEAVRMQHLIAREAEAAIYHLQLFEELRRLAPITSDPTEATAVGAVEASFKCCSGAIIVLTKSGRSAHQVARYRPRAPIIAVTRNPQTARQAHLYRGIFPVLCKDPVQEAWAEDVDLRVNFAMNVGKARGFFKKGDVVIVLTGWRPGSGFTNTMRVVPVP

B1: His-PKM2 T45A mutant (natural protein)
chain: not shown
notes: Monomer and tetramer are both spoken of; source: E. coli, purified
stoichiometry N [1]: 4

B2: GST-Aurora A (natural protein, human, UniProt O14965 1-403, looked up)
chain: MDRSKENCISGPVKATAPVGGPKRVLVTQQFPCQNPLPVNSGQAQRVLCPSNSSQRIPLQAQKLVSSHKPVQNQKQKQLQATSVPHPVSRPLNNTQKSKQPLPSAPENNPEEELASKQKNEESKKRQWALEDFEIGRPLGKGKFGNVYLAREKQSKFILALKVLFKAQLEKAGVEHQLRREVEIQSHLRHPNILRLYGYFHDATRVYLILEYAPLGTVYRELQKLSKFDEQRTATYITELANALSYCHSKRVIHRDIKPENLLLGSAGELKIADFGWSVHAPSSRRTTLCGTLDYLPPEMIEGRMHDEKVDLWSLGVLCYEFLVGKPPFEANTYQETYKRISRVEFTFPDFVTEGARDLISRLLKHNPSQRPMLREVLEHPWITANSSKPSNCQNKESASKQS
notes: full-length Aurora A cloned into the BamH/XhoI sites of p-GEX-5X-3
binding result [2]: binds

B3: shRNA-resistant Flag-PKM2 T45A (natural protein)
chain: not shown
notes: Flag-tagged human PKM2 T45A with two silent nucleotide substitutions in the shRNA-targeted region, in the pGIPZ system; Monomer and tetramer are both spoken of; 4 copies is the tetramer seen by cross-linking; also called PKM2 T45A mutant; source: H1299 with endogenous PKM2 knocked down, retroviral expression, purified on Flag beads
stoichiometry N [3]: 4
